This is an account of results in PMC11101322, “VvWRKY5 positively regulates wounding-induced anthocyanin accumulation in grape by interplaying with VvMYBA1 and promoting jasmonic acid biosynthesis”.

One data set has as its target T1, VvMYBA1-HIS (Vitis vinifera, UniProt Q6L9M9 1-250).
T1 sequence: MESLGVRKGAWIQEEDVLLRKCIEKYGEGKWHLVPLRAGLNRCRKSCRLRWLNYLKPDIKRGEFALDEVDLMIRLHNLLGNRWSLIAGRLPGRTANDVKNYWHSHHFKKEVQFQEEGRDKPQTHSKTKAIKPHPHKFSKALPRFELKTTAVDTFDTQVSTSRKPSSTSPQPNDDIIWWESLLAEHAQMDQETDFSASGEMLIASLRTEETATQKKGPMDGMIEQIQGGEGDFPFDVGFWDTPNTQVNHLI
Briefly: EMSA; LightShift Chemiluminescent EMSA system; buffer, salt, pH and temperature not stated. Conditions: protein: recombinant; tags: His (pET-32a fusion); label: biotin; blunt. For orientation: A gel shift assay detects complexes by their altered migration in electrophoresis.

A further data set concerns the target T2, VvWRKY5-HIS (Vitis vinifera, UniProt F6HUN4 7-329).
T2 sequence: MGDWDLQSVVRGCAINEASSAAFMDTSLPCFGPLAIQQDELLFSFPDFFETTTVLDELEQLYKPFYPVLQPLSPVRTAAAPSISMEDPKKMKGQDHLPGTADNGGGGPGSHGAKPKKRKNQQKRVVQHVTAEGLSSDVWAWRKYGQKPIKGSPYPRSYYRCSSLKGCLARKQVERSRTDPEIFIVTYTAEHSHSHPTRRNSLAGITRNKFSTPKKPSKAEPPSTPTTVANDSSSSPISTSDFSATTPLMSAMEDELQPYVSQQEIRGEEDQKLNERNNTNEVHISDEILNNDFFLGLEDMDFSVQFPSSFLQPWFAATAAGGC
The data set is described as above. Conditions: protein: recombinant, tags: His (pET-32a fusion), blunt.

B1: VvUFGT probe (dsDNA)
DNA 1: GGATGACAACCCCCATGCAGTTGCCACTCTCACAACCCCC
DNA 2: GGGGGTTGTGAGAGTGGCAACTGCATGGGGGTTGTCATCC
B1: the binding result with VvMYBA1-HIS is “binds”; with VvWRKY5-HIS (label: biotin), “no binding”.

B2: VvLOX mutant probe (dsDNA)
DNA 1: ACCAGCCAATGGAAAATAGCGAAAATACCTAGTCTATTCC
DNA 2: GGAATAGACTAGGTATTTTCGCTATTTTCCATTGGCTGGT
On to B2, for which, in the data set with VvWRKY5-HIS, the binding result is “no binding”.
